Test [1] addresses T1, FcγRIIb extracellular domain with C-terminal His tag (human, UniProt P31994 43-217).
T1 construct: extracellular domain; soluble receptor expressed in FreeStyle293 cells, used as analyte in Biacore; also called FcgRIIb; 2b; not shown: His tag attached to the C terminus
T1 sequence (looked up): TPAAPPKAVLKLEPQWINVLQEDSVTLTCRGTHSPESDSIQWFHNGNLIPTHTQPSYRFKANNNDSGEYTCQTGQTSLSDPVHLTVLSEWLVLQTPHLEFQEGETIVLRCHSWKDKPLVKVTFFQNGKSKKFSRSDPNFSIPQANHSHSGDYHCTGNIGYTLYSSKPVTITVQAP
The experiment in a line: SPR (Biacore), antibody captured on antigen peptide chip, FcγR as analyte; relative binding. On the technique in general: In SPR one partner is held on a chip, and binding of the other changes the refractive index at the surface.

In test [2] the target is T2, FcγRIa extracellular domain with C-terminal His tag (human, UniProt P12314 16-292).
T2 construct: extracellular domain; soluble receptor expressed in FreeStyle293 cells, used as analyte in Biacore; also called FcgRI; 1a; not shown: His tag attached to the C terminus
The description is as above.

T2 sequence (P12314 16-292): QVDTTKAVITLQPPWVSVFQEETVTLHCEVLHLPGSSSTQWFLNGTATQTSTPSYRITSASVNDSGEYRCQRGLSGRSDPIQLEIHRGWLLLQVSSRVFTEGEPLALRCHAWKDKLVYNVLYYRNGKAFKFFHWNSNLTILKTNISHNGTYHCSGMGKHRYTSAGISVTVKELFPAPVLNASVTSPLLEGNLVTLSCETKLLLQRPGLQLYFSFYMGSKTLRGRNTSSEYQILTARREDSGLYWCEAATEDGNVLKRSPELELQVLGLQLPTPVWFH

B1: GpH7-A5/GpH7-B3 variant A327_13S/GpL16-k0 (antibody, human IgG1, kappa)
heavy 1: not shown
heavy 2: not shown
light: DIVMTQSPLSLPVTPGEPASISCQASESLVHSNRNTYLHWYLQKPGQSPQLLIYKVSNRFSGVPDRFSGSGSGTDFTLKISRVEAEDVGVYYCSQNTHVPPTFGQGTKVEIERTVAAPSVFIFPPSDEQLKSGTASVVCLLNNFYPREAKVQWKVDNALQSGNSQESVTEQDSKDSTYSLSSTLTLSKADYEKHKVYACEVTHQGLSSPVTKSFNRGEC
notes: heterodimerized anti-glypican-3 IgG1; alteration in the GpH7-B3 chain only; also called He Ab
Turning to B1, the He/Con_2b in test [1] is 79.5 % of control GpH7-A5/GpH7-B3/GpL16-k0 (=100). In test [2], the He/Con_1a was 102 % of control GpH7-A5/GpH7-B3/GpL16-k0 (=100).

B2: GpH7-A5/GpH7-B3 variant D270_05P/GpL16-k0 (antibody, human IgG1, kappa)
heavy 1: not shown
heavy 2: not shown
light: DIVMTQSPLSLPVTPGEPASISCQASESLVHSNRNTYLHWYLQKPGQSPQLLIYKVSNRFSGVPDRFSGSGSGTDFTLKISRVEAEDVGVYYCSQNTHVPPTFGQGTKVEIERTVAAPSVFIFPPSDEQLKSGTASVVCLLNNFYPREAKVQWKVDNALQSGNSQESVTEQDSKDSTYSLSSTLTLSKADYEKHKVYACEVTHQGLSSPVTKSFNRGEC
notes: as for B1
With B2, the He/Con_2b in test [1] was 13.9 % of control GpH7-A5/GpH7-B3/GpL16-k0 (=100). Also, the He/Con_1a in test [2] is 67.1 % of control GpH7-A5/GpH7-B3/GpL16-k0 (=100).

B3: GpH7-A5/GpH7-B3 variant A330_16H/GpL16-k0 (antibody, human IgG1, kappa)
heavy 1: not shown
heavy 2: not shown
light: DIVMTQSPLSLPVTPGEPASISCQASESLVHSNRNTYLHWYLQKPGQSPQLLIYKVSNRFSGVPDRFSGSGSGTDFTLKISRVEAEDVGVYYCSQNTHVPPTFGQGTKVEIERTVAAPSVFIFPPSDEQLKSGTASVVCLLNNFYPREAKVQWKVDNALQSGNSQESVTEQDSKDSTYSLSSTLTLSKADYEKHKVYACEVTHQGLSSPVTKSFNRGEC
notes: as for B1
For the molecule B3, in test [1], the He/Con_2b is 87.6 % of control GpH7-A5/GpH7-B3/GpL16-k0 (=100). In test [2], the He/Con_1a was 106 % of control GpH7-A5/GpH7-B3/GpL16-k0 (=100).

B4: GpH7-A5/GpH7-B3 variant A330_08L/GpL16-k0 (antibody, human IgG1, kappa)
heavy 1: not shown
heavy 2: not shown
light: DIVMTQSPLSLPVTPGEPASISCQASESLVHSNRNTYLHWYLQKPGQSPQLLIYKVSNRFSGVPDRFSGSGSGTDFTLKISRVEAEDVGVYYCSQNTHVPPTFGQGTKVEIERTVAAPSVFIFPPSDEQLKSGTASVVCLLNNFYPREAKVQWKVDNALQSGNSQESVTEQDSKDSTYSLSSTLTLSKADYEKHKVYACEVTHQGLSSPVTKSFNRGEC
notes: as for B1
Turning to B4, in test [1], the He/Con_2b is 70.5 % of control GpH7-A5/GpH7-B3/GpL16-k0 (=100). The He/Con_1a in test [2] was 107 % of control GpH7-A5/GpH7-B3/GpL16-k0 (=100).

B5: GpH7-A5/GpH7-B3 variant A330_15Y/GpL16-k0 (antibody, human IgG1, kappa)
heavy 1: not shown
heavy 2: not shown
light: DIVMTQSPLSLPVTPGEPASISCQASESLVHSNRNTYLHWYLQKPGQSPQLLIYKVSNRFSGVPDRFSGSGSGTDFTLKISRVEAEDVGVYYCSQNTHVPPTFGQGTKVEIERTVAAPSVFIFPPSDEQLKSGTASVVCLLNNFYPREAKVQWKVDNALQSGNSQESVTEQDSKDSTYSLSSTLTLSKADYEKHKVYACEVTHQGLSSPVTKSFNRGEC
notes: as for B1
With B5, the He/Con_2b in test [1] is 95 % of control GpH7-A5/GpH7-B3/GpL16-k0 (=100). Further, the He/Con_1a in test [2] is 105 % of control GpH7-A5/GpH7-B3/GpL16-k0 (=100).

B6: GpH7-A5/GpH7-B3 variant D270_02A/GpL16-k0 (antibody, human IgG1, kappa)
heavy 1: not shown
heavy 2: not shown
light: DIVMTQSPLSLPVTPGEPASISCQASESLVHSNRNTYLHWYLQKPGQSPQLLIYKVSNRFSGVPDRFSGSGSGTDFTLKISRVEAEDVGVYYCSQNTHVPPTFGQGTKVEIERTVAAPSVFIFPPSDEQLKSGTASVVCLLNNFYPREAKVQWKVDNALQSGNSQESVTEQDSKDSTYSLSSTLTLSKADYEKHKVYACEVTHQGLSSPVTKSFNRGEC
notes: as for B1
On to B6, for which the He/Con_2b in test [1] was 48.3 % of control GpH7-A5/GpH7-B3/GpL16-k0 (=100). Moreover, the He/Con_1a in test [2] was 71.5 % of control GpH7-A5/GpH7-B3/GpL16-k0 (=100).

B7: GpH7-A5/GpH7-B3 variant A330_14T/GpL16-k0 (antibody, human IgG1, kappa)
heavy 1: not shown
heavy 2: not shown
light: DIVMTQSPLSLPVTPGEPASISCQASESLVHSNRNTYLHWYLQKPGQSPQLLIYKVSNRFSGVPDRFSGSGSGTDFTLKISRVEAEDVGVYYCSQNTHVPPTFGQGTKVEIERTVAAPSVFIFPPSDEQLKSGTASVVCLLNNFYPREAKVQWKVDNALQSGNSQESVTEQDSKDSTYSLSSTLTLSKADYEKHKVYACEVTHQGLSSPVTKSFNRGEC
notes: as for B1
B7: the He/Con_2b in test [1] is 77.9 % of control GpH7-A5/GpH7-B3/GpL16-k0 (=100). Further, the He/Con_1a in test [2] was 105 % of control GpH7-A5/GpH7-B3/GpL16-k0 (=100).

B8: GpH7-A5/GpH7-B3 variant A330_06M/GpL16-k0 (antibody, human IgG1, kappa)
heavy 1: not shown
heavy 2: not shown
light: DIVMTQSPLSLPVTPGEPASISCQASESLVHSNRNTYLHWYLQKPGQSPQLLIYKVSNRFSGVPDRFSGSGSGTDFTLKISRVEAEDVGVYYCSQNTHVPPTFGQGTKVEIERTVAAPSVFIFPPSDEQLKSGTASVVCLLNNFYPREAKVQWKVDNALQSGNSQESVTEQDSKDSTYSLSSTLTLSKADYEKHKVYACEVTHQGLSSPVTKSFNRGEC
notes: as for B1
Consider B8, for which the He/Con_2b in test [1] was 80.5 % of control GpH7-A5/GpH7-B3/GpL16-k0 (=100). The He/Con_1a in test [2] is 105 % of control GpH7-A5/GpH7-B3/GpL16-k0 (=100).

B9: GpH7-A5/GpH7-B3 variant D270_03V/GpL16-k0 (antibody, human IgG1, kappa)
heavy 1: not shown
heavy 2: not shown
light: DIVMTQSPLSLPVTPGEPASISCQASESLVHSNRNTYLHWYLQKPGQSPQLLIYKVSNRFSGVPDRFSGSGSGTDFTLKISRVEAEDVGVYYCSQNTHVPPTFGQGTKVEIERTVAAPSVFIFPPSDEQLKSGTASVVCLLNNFYPREAKVQWKVDNALQSGNSQESVTEQDSKDSTYSLSSTLTLSKADYEKHKVYACEVTHQGLSSPVTKSFNRGEC
notes: as for B1
For the molecule B9, in test [1], the He/Con_2b is 39.5 % of control GpH7-A5/GpH7-B3/GpL16-k0 (=100). The He/Con_1a in test [2] was 77.9 % of control GpH7-A5/GpH7-B3/GpL16-k0 (=100).

Values taken from patent publication US20180155451A1 (published 2018).
